Measurements as given in publication PMC11467180.

Biological target: rA3GR8/E259A (Macaca mulatta (rhesus macaque), UniProt M1GSK9 1-138+=AEAG+147-383, E259A;internal_change)
Assay: EMSA

| Binder | Kd |
| --- | --- |
| TTTTAATTTT (ssDNA) [AA-DNA 10 nt] | 318 ± 64 nM |
| TTTTGATTTT (ssDNA) [GA-DNA 10 nt] | 473 ± 95 nM |
